Source: paper PMC8050779

Assays:
[1] = target: oxytocin ion channel-coupled receptor with the T4 phage lysozyme domain, OXTR(T4L) fused to Kir6.2 (not stated | T4 phage) (UniProt P30559)
[2] = target: oxytocin ion channel-coupled receptor with the T4 phage lysozyme domain, OXTR(T4L) fused to Kir6.2 (not stated | T4 phage) (UniProt P30559); remark: listed apart in the source

Sequence of oxytocin (P01178 whole entry, looked up, the tested form may be a part): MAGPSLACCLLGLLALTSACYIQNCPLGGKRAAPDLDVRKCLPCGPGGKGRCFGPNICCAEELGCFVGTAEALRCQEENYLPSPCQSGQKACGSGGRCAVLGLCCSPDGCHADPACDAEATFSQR
Sequence of UniProt P30559 (P30559 whole entry, looked up, the tested form may be a part): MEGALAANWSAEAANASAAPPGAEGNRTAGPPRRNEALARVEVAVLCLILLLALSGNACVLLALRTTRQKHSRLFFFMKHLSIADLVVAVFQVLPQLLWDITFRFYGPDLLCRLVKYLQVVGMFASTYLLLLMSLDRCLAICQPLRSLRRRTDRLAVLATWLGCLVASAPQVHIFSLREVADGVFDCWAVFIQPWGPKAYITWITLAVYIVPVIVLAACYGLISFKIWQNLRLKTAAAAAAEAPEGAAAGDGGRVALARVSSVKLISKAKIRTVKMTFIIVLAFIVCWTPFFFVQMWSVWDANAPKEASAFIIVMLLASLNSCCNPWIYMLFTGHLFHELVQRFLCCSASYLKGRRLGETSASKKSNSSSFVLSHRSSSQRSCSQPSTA

- ICCR activation by 1 μM oxytocin, TEVC, after cholesterol depletion and repletion with cholesterol (% of the control before incubation) [1]: 70
- ICCR activation by 1 μM oxytocin, TEVC, after cholesterol depletion and repletion with cholesteryl hemi-succinate (CHS) (% of the control level before incubation) [1]: 45
- amplitude of ICCR activation by 1 μM oxytocin, TEVC, after co-incubation with 20 mM MβCD and 5 μM oxytocin for at least 3 h and washing (% of the basal current) [2]: 100
- amplitude of ICCR activation by 1 μM oxytocin, TEVC, control without MβCD (Buffer + 5 μM oxytocin, at least 3 h) (% of the basal current) [2]: 120
Substance: oxytocin (from UniProt P01178 20-28) (peptide)
